Patent publication US20080311122A1 (AstraZeneca / MedImmune, published 2008)
Values belong to the binder of their own block, whether it stands above or below them. No end group written: not given here.

Legend:
[1] = biological target: T1, recombinant HMG1 purified from E. coli as a calmodulin binding protein (CBP) fusion protein (human, UniProt A9RA84 1-215 (Papio anubis entry)); assay: cell-based or functional assay
T1 sequence: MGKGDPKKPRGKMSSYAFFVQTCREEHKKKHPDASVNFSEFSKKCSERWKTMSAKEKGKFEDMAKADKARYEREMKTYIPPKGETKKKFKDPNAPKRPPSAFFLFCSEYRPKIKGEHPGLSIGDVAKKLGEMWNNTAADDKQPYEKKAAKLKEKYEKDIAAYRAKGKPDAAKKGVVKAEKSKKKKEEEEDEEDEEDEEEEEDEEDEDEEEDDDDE

[2] = biological target: T2, HMG1 B Box peptide amino acids 91-169; assay: ELISA, wells coated with HMG1 B Box peptide 91-169 at 10 ug/ml
T2 construct: also called HMG1 peptide 91-169
T2 peptide: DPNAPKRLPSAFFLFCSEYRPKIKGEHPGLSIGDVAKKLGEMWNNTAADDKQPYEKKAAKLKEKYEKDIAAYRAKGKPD
Outline: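 Biotinylated peptides captured on avidin-coated wells (1% BSA block, 30 min, room temperature), then antibodies added in serial dilution from 10 μg/ml; for the coated-peptide format, plates blocked with 4% milk/PBS 1 h at 37 °C. Bound antibody detected with anti-human IgG-HRP and TMB, absorbance at 450 nm.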

[3] = biological target: T2, HMG1 B Box peptide amino acids 91-169; assay: ELISA, wells coated with HMG1 B Box peptide 91-169 at 10 ug/ml, anti-human IgG-HRP, OD 450
Experimental: (§1) The plate was then blocked with 4% milk powder dissolved in PBS at 37° C. for 1 hour. The blocking solution was removed and replaced with human anti-HMG1 antibodies at various concentrations (see FIGS. 5A-B). […] HRP activity was detected with Sureblue HRP substrate (KPL). Plates were read at 450 nm using a Kinetic Microplate Reader (Molecular Devices). […] After washing and blocking with 1% BSA in PBS, the biotinylated peptides were individually added into the avidin coated wells and incubated for 30 min at room temperature. The serial diluted antibody G4, S16 and S6 at the initial concentration at 10 μg/ml were then transferred into the wells followed by adding mouse anti human IgG-HRP conjugate (Pierce). Detection was accomplished by adding 50 μl of tetramethylbenzidine (TMB) substrate (KPL) and the absorbance was read at […].

[4] = biological target: T1, recombinant HMG1 purified from E. coli …; assay: sandwich ELISA: antibody captured on anti-human IgG Fc, rHMG1 2 ug/ml in solution, mouse anti-HMGB1 and anti-mouse IgG-HRP, OD 450
Experimental: Sandwich ELISA (soluble HMG1): Immunoplates (EIA/RIA plate, High binding, Costar) were coated with anti human IgG Fc at 10 μg/ml in PBS (pH 7.2) and incubated at 4° C. overnight. The coating reagent was removed and the plates were rinsed briefly with PBS. The plates were then blocked with 4% milk for 1 hour at 37° C. and rinsed with PBS. The anti-HMG1 antibodies were diluted in 4% milk. For serial dilutions, the antibodies were used at a starting concentration of 20 μg/ml. The diluted anti-HMG1 antibodies were then added into plate and incubated for 1 hr at 37° C. The plate was then washed 10 times with PBST (PBS/0.1% tween 20) and incubate with antigen (HMGB1, 2 μg/ml; or 0.7 μg/ml for native HMGB1) in 4% milk and incubated at 37° C. for 1 h. The plate was then wash 10 times and incubated with mouse anti-HMGB1, 1 μg/ml in 4% milk at 37° C. for 1 h. The plate was washed 10 times and incubated with anti-mouse IgG-HRP at 1:1000 at 37° C. for 1 h. The plate was then washed and developed. HRP activity was detected with Sureblue HRP substrate (KPL). Plates were read at 450 nm using a Kinetic Microplate Reader (Molecular Devices).

HMGB1 peptide 166-183 = biological target: T3, HMGB1 peptide 166-183 (UniProt P09429 166-183, also: biotinylated, site not given here); assay: ELISA on biotinylated HMGB1 peptides captured on NeutrAvidin, antibody in serial dilution from 10 ug/ml, anti-human IgG-HRP, OD 450
T3 peptide (looked up): GKPDAAKKGVVKAEKSKK
Experimental: as §1

[5] = biological target: T4, HMGB1 B-box peptide 108-138 (UniProt P09429 108-138, biotinylated); assay: ELISA, biotinylated peptides on avidin plate
T4 peptide (looked up): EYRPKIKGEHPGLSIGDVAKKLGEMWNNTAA
Experimental: as §1

[6] = biological target: T5, HMGB1 C-terminal tail peptide 188-215 (human, biotinylated); assay: ELISA, biotinylated peptides on avidin plate
T5 peptide: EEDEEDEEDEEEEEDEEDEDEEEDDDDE
Experimental: as §1

106-123 = biological target: T6, 106-123 (also: biotinylated, site not given here); assay: ELISA on biotinylated HMGB1 peptides captured on NeutrAvidin, antibody in serial dilution from 10 ug/ml, anti-human IgG-HRP, OD 450
T6 construct: Bar group label on the sheet
T6 peptide: CSEYRPKIKGEHPGLSIG
Experimental: as §1

B3: anti-HMG1 antibody S2 (antibody, V domains shown)
VH: EVQLLESGGGLVQPGGSLRLSCAASGFTFSGYMMVWVRQAPGKGLEWVSRISPSGGQTGYADSVKGRFTISRDNSKNTLYLQMNSLRAEDTAVYYCAREEGGSYGAFDIWGQGTMVTVSS
VL: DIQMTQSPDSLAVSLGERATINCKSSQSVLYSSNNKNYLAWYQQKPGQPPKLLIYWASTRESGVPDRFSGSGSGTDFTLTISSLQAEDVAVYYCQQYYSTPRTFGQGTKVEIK
notes: also called ATCC PTA-6142
IC50, inhibition of rHMG1 stimulated IL-1β release from human PBMC [1]: 0.22 µg/mL
IC50, inhibition of rHMG1 stimulated IL-6 release from human PBMC [1]: 0.163 nM
IC50, inhibition of rHMG1 stimulated TNF-α release from human PBMC [1]: 0.0642 µg/mL
binding result [2]: no binding (tested: 10 ug/ml (log 1.00))
EC50 (read off the curve) [4]: ~0.08 µg/mL

B4: anti-HMG1 antibody G4 (antibody, V domains shown)
VH: EVQLLESGGGLVQPGGSLRLSCAASGFTFSWYDMTWVRQAPGKGLEWVSSISPSGGYTKYADSVKGRFTISRDNSKNTLYLQMNSLRAEDTAVYYCTTEFYDYLDVWGKGTTVTVSS
VL: DIQMTQSPGTLSLSPGEGATLSCRASQSVSSTYLAWYQQKPGQAPRLLIYEASKRATGTPARFSGSGSGTDFTLSISSLEPEDFAVYYCQHRHNWPPQWTFGQGTKVEVK
notes: also called ATCC PTA-6258
IC50, inhibition of rHMG1 stimulated IL-1β release from human PBMC [1]: 5.01 µg/mL
IC50, inhibition of rHMG1 stimulated IL-6 release from human PBMC [1]: 0.9 nM
IC50, inhibition of rHMG1 stimulated IL-12 release from human PBMC [1]: 0.715 µg/mL
IC50, inhibition of rHMG1 stimulated TNF-α release from human PBMC [1]: 5.51 µg/mL
binding result [5]: binds
binding result [6]: binds
binding result [3]: binds
binding result (106-123): binds

Continued, values first:

IC50, inhibition of HMG1 stimulated NO release from macrophages [1]: 4.15 µg/mL
IC50, inhibition of rHMG1 stimulated IL-1β release from human PBMC [1]: 0.0232 µg/mL
IC50, inhibition of rHMG1 stimulated IL-6 release from human PBMC [1]: 0.174 nM
IC50, inhibition of rHMG1 stimulated TNF-α release from human PBMC [1]: 0.0182 µg/mL
binding result [2]: no binding (tested: 10 ug/ml (log 1.00))
B1: anti-HMG1 antibody S6 (antibody, V domains shown)
VH: EVQLLESGGGLVQPGGSLRLSCAASGFTFSWYDMSWVRQAPGKGLEWVSRISPSGGYTMYADSVKGRFTISRDNSKNTLYLQMNSLRAEDTAVYYCARLEVGATSGGTAFDIWGQGTMVTVSS
VL: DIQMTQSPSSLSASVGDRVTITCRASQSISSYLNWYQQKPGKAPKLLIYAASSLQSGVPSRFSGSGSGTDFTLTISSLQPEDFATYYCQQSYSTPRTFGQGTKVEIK
notes: also called ATCC PTA-6143

IC50, inhibition of rHMG1 stimulated IL-1β release from human PBMC [1]: 6.05 µg/mL
IC50, inhibition of rHMG1 stimulated IL-6 release from human PBMC [1]: 0.56 nM
IC50, inhibition of rHMG1 stimulated IL-12 release from human PBMC [1]: 1.24 µg/mL
IC50, inhibition of rHMG1 stimulated TNF-α release from human PBMC [1]: 1.44 µg/mL
binding result [3]: binds
EC50 (read off the curve) [4]: ~0.08 µg/mL
binding result (HMGB1 peptide 166-183): binds
B2: anti-HMG1 antibody S16 (antibody, V domains shown)
VH: EVQLLESGGGLVQPGGSLRLSCAASGFTFSWYSMLWVRQAPGKGLEWVSYISPSGGFTNYADSVKGRFTISRDNSKNTLYLQMNSLRAEDTAVYYCARWDYNSGWYYDHWGQGTLVTVSS
VL: DIQMTQSPDTLSLSPGERATLSCRASQSVNSRNLAWYQQKPGQAPRLLIYGASTRATGIPDRFSGSVSGTEFTLTISSLQPDDFATYYCQQYNSYFTFGQGTKLEIK
notes: also called ATCC PTA-6259
